Assay results as given in US5851528.

What was measured:
C3/C5 convertases [1] = biological target: C3/C5 convertases
C3/C5 convertases [2] = biological target: C3/C5 convertases; remark: listed apart in the source
[3] = biological target: C5 convertase (formed in human serum) (human)

IC50, inhibition of C5a production in human serum (competition radioimmunoassay for C5a desArg) [3] | Substance | IC50, inhibition of classical pathway complement-mediated lysis of IgM-sensitized sheep RBC by human serum (C3/C5 convertases [1]) | IC50, inhibition of alternative pathway complement-mediated lysis of unsensitized guinea pig RBC by human serum (C3/C5 convertases [2])
300 nM | CAB-2 (complement activation blocker-2), recombinant chimeric protein encoded by the MCP-DAF expression vector | 30 nM | 100 nM
 | mixture of sMCP + sDAF added together on an equal molar basis (pool or library) | 200 nM | 
 | soluble DAF (sDAF), soluble decay accelerating factor (from UniProt P08174) | 100 nM | 
5000 nM | soluble MCP (sMCP), soluble membrane cofactor protein recombinant protein (from UniProt P15529-3) | 7000 nM | 350 nM
